Reference: patent US20240287172A1 (SCIRHOM, published 2024)
Positions count from the first letter of the chain named.

T1: hiR2-FL-T586A-T7 (human, UniProt Q6PJF5 1-856)
T1 sequence: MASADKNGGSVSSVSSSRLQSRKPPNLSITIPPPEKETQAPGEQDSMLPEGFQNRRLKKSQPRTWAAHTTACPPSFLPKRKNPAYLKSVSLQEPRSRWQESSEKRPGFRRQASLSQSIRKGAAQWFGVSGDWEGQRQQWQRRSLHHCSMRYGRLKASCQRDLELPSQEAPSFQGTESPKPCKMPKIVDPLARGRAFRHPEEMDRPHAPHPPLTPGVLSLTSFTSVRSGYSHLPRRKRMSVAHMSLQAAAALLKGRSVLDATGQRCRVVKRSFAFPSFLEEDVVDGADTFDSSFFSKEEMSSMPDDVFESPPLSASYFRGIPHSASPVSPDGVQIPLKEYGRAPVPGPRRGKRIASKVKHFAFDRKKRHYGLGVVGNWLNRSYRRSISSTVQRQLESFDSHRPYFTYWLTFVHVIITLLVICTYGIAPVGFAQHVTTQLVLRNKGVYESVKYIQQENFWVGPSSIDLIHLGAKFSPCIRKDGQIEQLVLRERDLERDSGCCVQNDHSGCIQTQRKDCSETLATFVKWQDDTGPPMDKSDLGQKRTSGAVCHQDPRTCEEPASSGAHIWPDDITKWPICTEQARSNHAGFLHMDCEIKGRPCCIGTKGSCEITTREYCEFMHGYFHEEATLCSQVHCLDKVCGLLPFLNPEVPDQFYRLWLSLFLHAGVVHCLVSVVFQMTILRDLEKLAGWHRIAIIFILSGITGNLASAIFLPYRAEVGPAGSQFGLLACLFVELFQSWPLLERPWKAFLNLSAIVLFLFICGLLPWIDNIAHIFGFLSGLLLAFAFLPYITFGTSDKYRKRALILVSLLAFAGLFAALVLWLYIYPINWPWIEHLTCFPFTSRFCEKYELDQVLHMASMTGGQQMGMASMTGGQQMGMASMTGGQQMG

T2: hiR2-FL-T522A-T7 (human, UniProt Q6PJF5 1-856)
T2 sequence: T1 sequence with T522A, A586T

B1: antibody 3 (antibody, V domains shown)
VH: QVTLKESGPGILQPSQTLSLTCSFSGFSLTTFAMGIGWVRQPSGKGLEWLAHIWWDGEKYNNPVLKSRLTISKDTSKNQVFLRIANVDTPDTATYYCARISSIYYIIDNWGQGTSVTVSS
VL: DIVLTQSPATLSVTPGHSVSLSCRASQSISNNLHWYQKKSHESPRLLIKYVSQSISGIPSRFSGSGSGTDFTLSINSVETEDFGMYFCQQSYNWPLTFGAGTKLELK
notes: mouse IgG, kappa light chain; also called clone #3; purified antibody 3
B2: antibody 48 (antibody, V domains shown)
VH: QVQLQQSGTELVRPGTSVKVSCKASGYAFTNYLIEWVKQRPGQGLEWIGVINPGSGFTKYNEKFKGKATLTADKSSSTVYMHLSSLTSEDSAVYFCARGLYRAMDYWGQGTSVTVSS
VL: DIQMTQSPASQSASLGESVTITCLASQTIATWLAWYQQKPGKSPQLLIYGATTLADGVPSRFSGGGSGTKFSFKISSLQAEDFVSYYCQQLYSTPYTFGGGTKLEIK
notes: mouse IgG, kappa light chain; also called clone #48; purified antibody 48
B3: antibody 50 (antibody, V domains shown)
VH: B2 VH with T9A, T16A, T30S, V79A, H82Q
VL: B2 VL with A30G, G50A, T52A, T53S, S85N, L91I
notes: mouse IgG, kappa light chain; also called clone #50; purified antibody 50
B4: antibody 5 (antibody, V domains shown)
VH: QVTLKESGPGILQPSQTLSLTCSFSGFSLSTFGMGVGWIRQPSGKGLEWLAHIWWDDEKYYNSALKSRLTISKATSKNQAFLKIANVDTADTATYYCARISNYGSNYWYFNVWGTGTTVTVSS
VL: QVVLTQSPALMSASPGEKVTMTCSAGSSVSCMYWYQQKPGSSPRVLIYDTSNLASGVPARFTGSGSGTSYSLTISRMEAEDAASYYCQQWNSYPLTFGAGTKLELK
notes: mouse IgG, kappa light chain; also called clone #5; purified antibody 5

What was measured:
hiR2-FL-T586A-T7 = biological target: T1, hiR2-FL-T586A-T7; experiment: FACS on MEF-DKO cells expressing the variant, 3 µg/ml antibody
Outline: (§1)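 Pelleted cells are resuspended in antibody at 3 μg/ml and kept on ice 1 hour, washed, then incubated with PE goat anti-mouse IgG F(ab′)2 diluted 1:100 on ice for 1 hour protected from light, washed again and analysed by flow cytometry.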

hiR2-FL-T522A-T7 = biological target: T2, hiR2-FL-T522A-T7; experiment: as above
Outline: as §1

Binder | loss of binding vs wild type (hiR2-FL-T586A-T7) [%] | loss of binding vs wild type (hiR2-FL-T522A-T7) [%]
B1 | ≥ 30 | –
B2 | – | ≥ 30
B3 | – | ≥ 30
B4 | ≥ 30 | –
